Data on 14 molecules can be found in patent publication US20150105316A1 (TREVENA, published 2015).

Where no end group is shown, it is not given here. [ ]: non-standard residue; d: D form. Ac6c = NC1(C(=O)O)CCCCC1; cyHex = not defined here; Ac5c = NC1(C(=O)O)CCCC1; Sar = CNCC(=O)O

Common to all, as to experiment: cell-based or functional assay
Assay [1] addresses T1, human angiotensin 2 type 1 receptor (human, UniProt P30556 1-359).
T1 sequence (looked up): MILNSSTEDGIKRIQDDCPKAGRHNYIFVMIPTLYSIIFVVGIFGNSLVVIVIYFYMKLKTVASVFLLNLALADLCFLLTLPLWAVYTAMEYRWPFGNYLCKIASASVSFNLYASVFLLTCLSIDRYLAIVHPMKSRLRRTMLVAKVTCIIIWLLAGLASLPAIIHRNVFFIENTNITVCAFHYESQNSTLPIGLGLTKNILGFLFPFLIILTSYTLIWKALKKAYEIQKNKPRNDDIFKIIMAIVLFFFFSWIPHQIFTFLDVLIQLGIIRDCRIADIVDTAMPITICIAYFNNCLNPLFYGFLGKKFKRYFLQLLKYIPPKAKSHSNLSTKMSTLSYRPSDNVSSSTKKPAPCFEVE

In assay [2] the target is T2, rat angiotensin 2 type 1 receptor (rat, UniProt P25095 1-359).
T2 sequence (looked up): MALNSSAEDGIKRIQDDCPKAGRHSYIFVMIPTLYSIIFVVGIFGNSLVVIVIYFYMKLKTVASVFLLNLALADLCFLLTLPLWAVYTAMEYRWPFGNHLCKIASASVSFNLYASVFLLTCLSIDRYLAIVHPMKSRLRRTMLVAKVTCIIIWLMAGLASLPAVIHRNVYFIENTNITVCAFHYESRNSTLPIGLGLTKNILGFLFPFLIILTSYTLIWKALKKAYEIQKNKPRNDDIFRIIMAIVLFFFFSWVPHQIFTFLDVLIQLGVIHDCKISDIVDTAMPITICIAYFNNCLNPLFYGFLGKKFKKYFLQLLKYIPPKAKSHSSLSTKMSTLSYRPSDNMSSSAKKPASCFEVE

Assay [3] has as its target T1, human angiotensin 2 type 1 receptor. This is another data set of the same source.
The target of assay [4] is T2, rat angiotensin 2 type 1 receptor. This is another data set of the same source.

Turning to [Sar]RVY[Ac5c]HPV [SEQ ID NO: 20 (Sar-Arg-Val-Tyr-cyPen-His-Pro-Val)], in assay [1], the “IP1 G-protein assay EC50” value is > 1.3 nM, the “IP1 G-protein assay Span” value is < 103 and the “IP1 G-protein assay pEC50” value is < 9.2. Also, in assay [2], the “IP1 G-protein assay EC50” value was > 0.6 nM, the “IP1 G-protein assay Span” value was < 104 and the “IP1 G-protein assay pEC50” value was < 9.2. Further, in assay [3], the “beta-arrestin2 assay EC50” value was > 3.2 nM, the “beta-arrestin2 assay Span” value was < 101 and the “beta-arrestin2 assay pEC50” value was < 8.5. In addition, in assay [4], the “beta-arrestin2 assay EC50” value is > 3.2 nM, the “beta-arrestin2 assay Span” value was < 105 and the “beta-arrestin2 assay pEC50” value is < 8.5.
Regarding [Sar]RVY[Ac6c]HPP [SEQ ID NO: 39 (Sar-Arg-Val-Tyr-cyHex-His-Pro-Pro)], in assay [1], the “IP1 G-protein assay EC50” value was > 1.3 nM, the “IP1 G-protein assay Span” value was < 103 and the “IP1 G-protein assay pEC50” value is < 9.2. Also, in assay [2], the “IP1 G-protein assay EC50” value was > 0.6 nM, the “IP1 G-protein assay Span” value is < 104 and the “IP1 G-protein assay pEC50” value is < 9.2. Also, in assay [3], the “beta-arrestin2 assay EC50” value is > 3.2 nM, the “beta-arrestin2 assay Span” value was < 101 and the “beta-arrestin2 assay pEC50” value is < 8.5. In assay [4], the “beta-arrestin2 assay EC50” value was > 3.2 nM, the “beta-arrestin2 assay Span” value was < 105 and the “beta-arrestin2 assay pEC50” value is < 8.5.
Regarding [Sar]RVY[cyHex]HPA (reading uncertain; also: printed as Sar-Arg-Val-Tyr-cyHex-His-Pro-Ala) [SEQ ID NO: 2 (Sar-Arg-Val-Tyr-cyHex-His-Pro-Ala)], in assay [1], the “IP1 G-protein assay Span” value was < 103 and the “IP1 G-protein assay pEC50” value is < 9.2. In assay [2], the “IP1 G-protein assay EC50” value was > 0.6 nM and the “IP1 G-protein assay pEC50” value was > 9.2. In addition, the “beta-arrestin2 assay Span” value in assay [3] is < 101. The “beta-arrestin2 assay Span” value in assay [4] was < 105.
[Sar]RVY[Ac5c]HPI [SEQ ID NO: 18 (Sar-Arg-Val-Tyr-cyPen-His-Pro-Ile)]: in assay [1], the “IP1 G-protein assay EC50” value was > 1.3 nM, the “IP1 G-protein assay Span” value was < 103 and the “IP1 G-protein assay pEC50” value was < 9.2. In assay [2], the “IP1 G-protein assay EC50” value is > 0.6 nM, the “IP1 G-protein assay Span” value is < 104 and the “IP1 G-protein assay pEC50” value was < 9.2. In addition, in assay [3], the “beta-arrestin2 assay EC50” value was > 3.2 nM, the “beta-arrestin2 assay Span” value was < 101 and the “beta-arrestin2 assay pEC50” value was < 8.5. Moreover, in assay [4], the “beta-arrestin2 assay EC50” value was > 3.2 nM, the “beta-arrestin2 assay Span” value was < 105 and the “beta-arrestin2 assay pEC50” value was < 8.5.
With [Sar]RVY[Ac6c]HPD [SEQ ID NO: 44 (Sar-Arg-Val-Tyr-cyHex-His-Pro-Asp)], in assay [2], the “IP1 G-protein assay EC50” value was > 0.6 nM, the “IP1 G-protein assay Span” value was < 104 and the “IP1 G-protein assay pEC50” value was < 9.2. In assay [3], the “beta-arrestin2 assay EC50” value was > 3.2 nM, the “beta-arrestin2 assay Span” value is < 101 and the “beta-arrestin2 assay pEC50” value is < 8.5. Also, in assay [4], the “beta-arrestin2 assay EC50” value is > 3.2 nM, the “beta-arrestin2 assay Span” value is < 105 and the “beta-arrestin2 assay pEC50” value was < 8.5.
As to [Sar]RVYPHPA [SEQ ID NO: 1 (Sar-Arg-Val-Tyr-Pro-His-Pro-Ala)], in assay [1], the “IP1 G-protein assay EC50” value is > 10000 nM and the “IP1 G-protein assay pEC50” value is > 9.2. Further, in assay [2], the “IP1 G-protein assay EC50” value is > 0.6 nM, the “IP1 G-protein assay Span” value was < 104 and the “IP1 G-protein assay pEC50” value is < 9.2. For the same molecule, in assay [3], the “beta-arrestin2 assay EC50” value is > 3.2 nM, the “beta-arrestin2 assay Span” value was < 101 and the “beta-arrestin2 assay pEC50” value is < 8.5. In addition, in assay [4], the “beta-arrestin2 assay EC50” value was > 3.2 nM, the “beta-arrestin2 assay Span” value was < 105 and the “beta-arrestin2 assay pEC50” value is < 8.5.
Regarding [Sar]RVY[Ac5c]HPT [SEQ ID NO: 21 (Sar-Arg-Val-Tyr-cyPen-His-Pro-Thr)], in assay [1], the “IP1 G-protein assay EC50” value is > 1.3 nM and the “IP1 G-protein assay pEC50” value is > 9.2. In addition, in assay [2], the “IP1 G-protein assay EC50” value is > 0.6 nM, the “IP1 G-protein assay Span” value was < 104 and the “IP1 G-protein assay pEC50” value was < 9.2. Besides, in assay [3], the “beta-arrestin2 assay EC50” value was > 3.2 nM, the “beta-arrestin2 assay Span” value was < 101 and the “beta-arrestin2 assay pEC50” value was < 8.5. In assay [4], the “beta-arrestin2 assay EC50” value was > 3.2 nM, the “beta-arrestin2 assay Span” value was < 105 and the “beta-arrestin2 assay pEC50” value was < 8.5.
As to [Sar]RVY[Ac5c]HPM [SEQ ID NO: 23 (Sar-Arg-Val-Tyr-cyPen-His-Pro-Met)], in assay [1], the “IP1 G-protein assay EC50” value is > 1.3 nM, the “IP1 G-protein assay Span” value was < 103 and the “IP1 G-protein assay pEC50” value is < 9.2. Also, in assay [2], the “IP1 G-protein assay EC50” value is > 0.6 nM, the “IP1 G-protein assay Span” value was < 104 and the “IP1 G-protein assay pEC50” value was < 9.2. In assay [3], the “beta-arrestin2 assay EC50” value is > 3.2 nM, the “beta-arrestin2 assay Span” value was < 101 and the “beta-arrestin2 assay pEC50” value was < 8.5. Also, in assay [4], the “beta-arrestin2 assay EC50” value was > 3.2 nM, the “beta-arrestin2 assay Span” value is < 105 and the “beta-arrestin2 assay pEC50” value is < 8.5.
On to XRVYXHPA (not fully specified; X1 Sar; X5 NMeIle) [SEQ ID NO: 58 (Sar-Arg-Val-Tyr-NMeIle-His-Pro-Ala)], for which, in assay [2], the “IP1 G-protein assay EC50” value is > 0.6 nM, the “IP1 G-protein assay Span” value is < 104 and the “IP1 G-protein assay pEC50” value is < 9.2. Further, the “beta-arrestin2 assay Span” value in assay [3] was < 101. The “beta-arrestin2 assay Span” value in assay [4] is < 105.
With [Sar]RVY[Ac5c]HPF [SEQ ID NO: 24 (Sar-Arg-Val-Tyr-cyPen-His-Pro-Phe)], in assay [1], the “IP1 G-protein assay EC50” value is < 1.3 nM, the “IP1 G-protein assay Span” value was > 103 and the “IP1 G-protein assay pEC50” value was < 9.2. In assay [2], the “IP1 G-protein assay EC50” value was > 0.6 nM, the “IP1 G-protein assay Span” value was < 104 and the “IP1 G-protein assay pEC50” value is < 9.2. Besides, in assay [3], the “beta-arrestin2 assay EC50” value was > 3.2 nM, the “beta-arrestin2 assay Span” value was > 101 and the “beta-arrestin2 assay pEC50” value is < 8.5. In assay [4], the “beta-arrestin2 assay EC50” value was > 3.2 nM, the “beta-arrestin2 assay Span” value is < 105 and the “beta-arrestin2 assay pEC50” value is < 8.5.
For [Sar]RVY[Ac6c]HPV [SEQ ID NO: 13 (Sar-Arg-Val-Tyr-cyHex-His-Pro-Val)], in assay [1], the “IP1 G-protein assay EC50” value was > 1.3 nM and the “IP1 G-protein assay pEC50” value was > 9.2. Besides, in assay [2], the “IP1 G-protein assay EC50” value is > 0.6 nM and the “IP1 G-protein assay pEC50” value is > 9.2. Also, in assay [4], the “beta-arrestin2 assay EC50” value was > 3.2 nM, the “beta-arrestin2 assay Span” value was < 105 and the “beta-arrestin2 assay pEC50” value is < 8.5.
On to [Sar]RVY[Ac5c]HPL [SEQ ID NO: 19 (Sar-Arg-Val-Tyr-cyPen-His-Pro-Leu)], for which, in assay [1], the “IP1 G-protein assay EC50” value is > 1.3 nM, the “IP1 G-protein assay Span” value is < 103 and the “IP1 G-protein assay pEC50” value was < 9.2. For the same molecule, in assay [2], the “IP1 G-protein assay EC50” value was > 0.6 nM and the “IP1 G-protein assay pEC50” value was > 9.2. In assay [3], the “beta-arrestin2 assay EC50” value was > 3.2 nM, the “beta-arrestin2 assay Span” value is < 101 and the “beta-arrestin2 assay pEC50” value is < 8.5. In assay [4], the “beta-arrestin2 assay EC50” value was > 3.2 nM, the “beta-arrestin2 assay Span” value is < 105 and the “beta-arrestin2 assay pEC50” value is < 8.5.
On to [Sar]RVY[Ac6c]HPQ [SEQ ID NO: 38 (Sar-Arg-Val-Tyr-cyHex-His-Pro-Gln)], for which, in assay [1], the “IP1 G-protein assay EC50” value is > 1.3 nM, the “IP1 G-protein assay Span” value is < 103 and the “IP1 G-protein assay pEC50” value is < 9.2. In assay [2], the “IP1 G-protein assay EC50” value was > 0.6 nM, the “IP1 G-protein assay Span” value is < 104 and the “IP1 G-protein assay pEC50” value is < 9.2. In assay [3], the “beta-arrestin2 assay EC50” value was > 3.2 nM, the “beta-arrestin2 assay Span” value was < 101 and the “beta-arrestin2 assay pEC50” value is < 8.5. In addition, in assay [4], the “beta-arrestin2 assay EC50” value was > 3.2 nM, the “beta-arrestin2 assay Span” value was < 105 and the “beta-arrestin2 assay pEC50” value was < 8.5.
As for [Sar]RVY[Ac5c]HPS [SEQ ID NO: 22 (Sar-Arg-Val-Tyr-cyPen-His-Pro-Ser)], in assay [1], the “IP1 G-protein assay EC50” value is > 1.3 nM and the “IP1 G-protein assay pEC50” value is > 9.2. In assay [2], the “IP1 G-protein assay EC50” value is > 0.6 nM, the “IP1 G-protein assay Span” value was < 104 and the “IP1 G-protein assay pEC50” value was < 9.2. Besides, in assay [3], the “beta-arrestin2 assay EC50” value is > 3.2 nM, the “beta-arrestin2 assay Span” value was < 101 and the “beta-arrestin2 assay pEC50” value was < 8.5. Moreover, in assay [4], the “beta-arrestin2 assay EC50” value is > 3.2 nM, the “beta-arrestin2 assay Span” value was < 105 and the “beta-arrestin2 assay pEC50” value was < 8.5.
